The values below come from patent US20100291106A1 (Novartis, published 2010).

Read-outs that look alike come from different tables or passages of the source.

Experiment [1] addresses T1, human C5 (human, UniProt P01031 19-673; P01031 678-1676).
T1 construct: Captured by an anti-C5 antibody in the ELISA
Kind of experiment: Direct ELISA at 2 ug/ml C5, 200 nM Fab. (In general: An ELISA detects its analyte on a solid surface through an enzyme-linked reagent.)

Experiment [2] deals with T2, cynomolgus complement C3b protein (cynomolgus monkey (Macaca fascicularis)).
T2 construct: also called cyno C3b; cynoC3b
Kind of experiment: SPR (Biacore), C3b captured by anti-C3d antibody, Fab as analyte. For orientation: In SPR one partner is held on a chip, and binding of the other changes the refractive index at the surface.

For experiment [3], the target named is T2, cynomolgus complement C3b protein. Kind of experiment: solution equilibrium titration (SET), ECL detection, Fab.
Experiment [4] shares this target. In words: cell-based or functional assay.
For the next experiment, the target named is T3, human C3d (human, UniProt P01024 1002-1303).
T3 construct: domain: C3d
Kind of experiment: cross reactivity, ELISA on C3d, anti-His detection. The procedure:
In order to determine whether the anti-C3b antibodies described herein can bind to complement pathway components iC3b and C3c, the following steps were performed: Directly add iC3b(complement Technologies A115), C3d (complement Technologies A117), or C3c (complement Technologies A116), at 2 μg/ml in Carbonate Buffer onto Coat Maxisorp plate Nunc (442404) at 100 μl per well. Seal plates and incubate at 4° C. overnight. Aspirate plates and wash 3 times with PBS/0.5% Tween 20. Block plates with Diluent (PBS, 4% BSA Fraction V (Fisher ICN16006980), 0.1% Tween 20 (Sigma P1379), 0.1% Triton X-100 (Sigma P234729)) and incubate for 2 h at room temperature or overnight at 4° C. Then wash plates once with PBS/0.5% Tween 20. Dilute Fabs at 100 nM and subsequent dilutions (or higher concentration if needed) in diluent and plate 100 μl per well. Incubate at room temperature for 1 h. Wash plates 3 times with PBS/0.5% Tween 20. Add 100 μl/well of anti-Histidine-HRP monoclonal detection antibody at 1:400 in diluent and incubate at room temperature for 1 h. Then wash 4 times with PBS/0.5% Tween 20. Add 100 μl of TMB substrate (Pierce 34028) and incubate at room temperature for up to 5 min. Add 50 μl of Stop solution (2N Sulfuric Acid) to each well and read plate at 450 nm and correct for plastic reading at 570 nm.

Experiment [5] has as its target T4, human complement C3b protein (human, UniProt P01024 23-667; P01024 749-1663).
T4 construct: Purified plasma C3b (Complement Technology, Quidel); Depending on the assay it was captured by an anti-C3d antibody, coated, biotinylated or coupled to beads; also called human C3b; huC3b
Kind of experiment: bead proximity assay, C3b-acceptor beads; competitor biotinylated fH. The procedure:
(§1) For C3b-C3b and C3b-fP proximity, Fabs or IgGs respectively were pre-incubated with C3b-Acceptor beads (20 μg/ml) for 60 min at room temperature. C3b-Donor beads or fP-Donor beads (20 μg/ml) were then added, and the plate was incubated overnight at room temperature before reading. For C3b-fB and C3b-fH proximity, antibodies were pre-incubated with C3b-Acceptor beads (20 μg/ml) for 60 minutes at room temperature. Biotinylated fB(D24G/N260D) or fH were then added, and incubated for 60 minutes at room temperature. SA-Donor beads were then added (20 μg/ml) and the plate was incubated overnight at room temperature before reading. Plates were read on the BMG Pherastar (ex=680, em=520-620).

Experiment [6] deals with T4, human complement C3b protein. In words: SPR (Biacore), C3b captured by anti-C3d antibody, Fab as analyte.
For experiment [7], the target named is T2, cynomolgus complement C3b protein. Described as above. This is another data set of the same source.
The target in experiment [8] is T4, human complement C3b protein. Kind of experiment: bead proximity assay, C3b-acceptor beads; competitor biotinylated fB(D24G/N260D). The procedure:
as §1

For experiment [9] the target is unchanged. Kind of experiment: cell-based or functional assay.
In experiment [10] the target is T2, cynomolgus complement C3b protein. Kind of experiment: cell-based or functional assay. This is another data set of the same source.
Experiment [11] deals with T4, human complement C3b protein. In words: solution equilibrium titration (SET), ECL detection, Fab.
Experiment [12] has as its target T2, cynomolgus complement C3b protein. The description is as above. The source holds these as a separate data set.
Experiment [13] deals with T1, human C5. Kind of experiment: cross reactivity, capture ELISA with anti-C5 capture antibody, anti-His detection.

What is called Kd is the constant that tells how readily two partners part at equilibrium. The IC50 is the point on the concentration scale where inhibition reaches its midpoint.

T4 sequence (P01024 23-667 P314L, chain 1 of 2): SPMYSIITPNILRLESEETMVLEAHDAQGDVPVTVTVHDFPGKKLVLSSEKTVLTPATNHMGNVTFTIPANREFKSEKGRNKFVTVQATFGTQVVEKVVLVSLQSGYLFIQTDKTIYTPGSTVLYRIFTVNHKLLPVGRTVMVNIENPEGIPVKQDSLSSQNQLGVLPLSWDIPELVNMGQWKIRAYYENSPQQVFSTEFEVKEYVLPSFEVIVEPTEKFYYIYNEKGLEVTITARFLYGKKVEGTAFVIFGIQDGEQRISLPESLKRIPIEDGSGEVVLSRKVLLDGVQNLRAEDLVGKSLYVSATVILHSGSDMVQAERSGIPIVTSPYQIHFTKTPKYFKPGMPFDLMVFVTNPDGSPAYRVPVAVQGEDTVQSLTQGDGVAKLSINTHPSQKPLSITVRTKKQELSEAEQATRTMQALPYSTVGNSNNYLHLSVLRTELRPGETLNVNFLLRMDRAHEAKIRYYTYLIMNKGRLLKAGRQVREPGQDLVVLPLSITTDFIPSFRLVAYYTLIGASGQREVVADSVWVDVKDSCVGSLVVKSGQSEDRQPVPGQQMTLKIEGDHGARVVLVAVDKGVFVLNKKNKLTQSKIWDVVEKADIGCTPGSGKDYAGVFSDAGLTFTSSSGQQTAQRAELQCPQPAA
T4 sequence (P01024 749-1663, chain 2 of 2): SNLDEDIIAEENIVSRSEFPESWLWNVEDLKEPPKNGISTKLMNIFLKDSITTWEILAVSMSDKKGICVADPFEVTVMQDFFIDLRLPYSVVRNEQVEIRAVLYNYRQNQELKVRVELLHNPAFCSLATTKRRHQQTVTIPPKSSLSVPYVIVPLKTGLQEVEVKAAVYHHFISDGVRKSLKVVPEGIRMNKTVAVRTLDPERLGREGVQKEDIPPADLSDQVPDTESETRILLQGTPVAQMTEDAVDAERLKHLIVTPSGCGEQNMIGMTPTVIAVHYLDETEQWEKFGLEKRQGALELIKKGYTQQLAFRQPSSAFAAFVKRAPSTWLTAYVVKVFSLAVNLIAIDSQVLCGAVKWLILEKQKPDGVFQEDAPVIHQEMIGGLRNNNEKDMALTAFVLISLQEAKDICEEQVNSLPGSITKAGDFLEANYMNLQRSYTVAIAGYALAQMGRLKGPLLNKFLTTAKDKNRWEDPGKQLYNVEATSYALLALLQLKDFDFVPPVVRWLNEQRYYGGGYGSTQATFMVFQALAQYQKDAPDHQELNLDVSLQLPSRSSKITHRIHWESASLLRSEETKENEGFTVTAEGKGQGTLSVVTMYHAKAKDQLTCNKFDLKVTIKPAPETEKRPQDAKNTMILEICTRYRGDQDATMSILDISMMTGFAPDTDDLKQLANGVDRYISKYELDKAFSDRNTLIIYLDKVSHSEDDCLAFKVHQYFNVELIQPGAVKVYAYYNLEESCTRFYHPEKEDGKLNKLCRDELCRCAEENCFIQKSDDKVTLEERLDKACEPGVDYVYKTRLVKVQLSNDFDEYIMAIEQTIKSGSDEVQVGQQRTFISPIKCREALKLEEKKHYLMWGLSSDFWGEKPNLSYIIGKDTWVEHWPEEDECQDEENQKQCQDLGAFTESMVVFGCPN
T1 sequence (P01031 19-673 limits assumed, chain 1 of 2): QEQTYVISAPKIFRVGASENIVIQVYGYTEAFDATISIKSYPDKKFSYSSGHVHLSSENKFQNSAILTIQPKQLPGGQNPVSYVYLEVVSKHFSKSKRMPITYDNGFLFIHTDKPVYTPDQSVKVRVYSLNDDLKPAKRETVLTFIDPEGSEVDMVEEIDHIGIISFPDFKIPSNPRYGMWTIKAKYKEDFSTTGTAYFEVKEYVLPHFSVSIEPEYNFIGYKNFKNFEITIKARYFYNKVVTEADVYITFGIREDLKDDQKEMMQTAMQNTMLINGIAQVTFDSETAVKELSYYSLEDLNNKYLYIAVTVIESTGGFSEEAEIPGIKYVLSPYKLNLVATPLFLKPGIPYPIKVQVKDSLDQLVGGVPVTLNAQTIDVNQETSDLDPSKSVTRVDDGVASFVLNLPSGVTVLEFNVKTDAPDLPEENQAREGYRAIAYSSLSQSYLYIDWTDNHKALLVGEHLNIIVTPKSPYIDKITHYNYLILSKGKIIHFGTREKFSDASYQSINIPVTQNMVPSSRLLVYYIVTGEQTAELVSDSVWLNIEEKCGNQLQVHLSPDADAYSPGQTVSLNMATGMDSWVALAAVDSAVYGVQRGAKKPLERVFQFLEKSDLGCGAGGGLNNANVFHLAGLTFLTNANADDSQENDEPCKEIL
T1 sequence (P01031 678-1676 limits assumed, chain 2 of 2): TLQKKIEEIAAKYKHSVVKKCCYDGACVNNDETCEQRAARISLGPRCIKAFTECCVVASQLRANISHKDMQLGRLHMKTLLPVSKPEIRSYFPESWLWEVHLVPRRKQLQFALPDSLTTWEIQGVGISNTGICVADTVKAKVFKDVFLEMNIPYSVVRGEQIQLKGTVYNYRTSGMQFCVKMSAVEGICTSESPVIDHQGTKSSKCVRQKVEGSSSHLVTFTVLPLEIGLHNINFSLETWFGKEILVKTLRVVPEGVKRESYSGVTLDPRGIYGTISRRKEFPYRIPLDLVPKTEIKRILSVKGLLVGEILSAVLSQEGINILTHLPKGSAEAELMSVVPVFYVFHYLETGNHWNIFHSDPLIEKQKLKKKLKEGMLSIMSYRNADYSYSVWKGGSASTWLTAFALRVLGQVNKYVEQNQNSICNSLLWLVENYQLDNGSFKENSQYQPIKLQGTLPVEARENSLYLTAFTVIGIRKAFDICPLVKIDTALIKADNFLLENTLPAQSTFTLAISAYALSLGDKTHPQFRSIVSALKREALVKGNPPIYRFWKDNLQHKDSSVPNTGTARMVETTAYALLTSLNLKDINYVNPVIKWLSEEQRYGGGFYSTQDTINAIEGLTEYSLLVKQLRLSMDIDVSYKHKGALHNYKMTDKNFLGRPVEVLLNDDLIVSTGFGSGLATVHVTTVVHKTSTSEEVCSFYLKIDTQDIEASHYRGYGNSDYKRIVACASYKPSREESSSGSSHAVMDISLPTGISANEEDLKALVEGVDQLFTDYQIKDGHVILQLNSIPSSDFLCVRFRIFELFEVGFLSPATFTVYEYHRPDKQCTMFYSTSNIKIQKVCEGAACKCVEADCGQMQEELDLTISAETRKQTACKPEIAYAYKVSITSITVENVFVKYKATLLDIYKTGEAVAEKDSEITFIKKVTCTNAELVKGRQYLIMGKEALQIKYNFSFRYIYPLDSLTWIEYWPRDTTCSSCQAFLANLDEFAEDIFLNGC
T3 sequence (P01024 1002-1303 limits assumed): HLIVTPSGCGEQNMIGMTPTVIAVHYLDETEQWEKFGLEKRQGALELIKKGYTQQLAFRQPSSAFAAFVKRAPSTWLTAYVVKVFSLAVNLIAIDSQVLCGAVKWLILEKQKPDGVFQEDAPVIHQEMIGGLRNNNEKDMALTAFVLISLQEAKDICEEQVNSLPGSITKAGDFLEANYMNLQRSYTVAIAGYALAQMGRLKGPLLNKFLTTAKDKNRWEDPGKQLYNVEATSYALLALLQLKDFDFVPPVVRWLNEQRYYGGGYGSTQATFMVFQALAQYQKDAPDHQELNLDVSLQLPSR

B1: 9609 (Fab, V domains shown)
VH: EVQLVQSGAEVKKPGSSVKVSCKASGGTFSSYTFSWVRQAPGQGLEWMGNILPIFGDANYAQKFQGRVTITADESTSTAYMELSSLRSEDTAVYYCARNKGAFYYMSTYPSLDVWGQGTLVTVSS
VL: DIQMTQSPSSLSASVGDRVTITCRASQNINYYLNWYQQKPGKAPKLLIYDAFSLQSGVPSRFSGSGSGTDFTLTISSLQPEDFATYYCQQSWSVPPFTFGQGTKVEIK
notes: the IgG is m13; also called 9609 Fab format; MOR9609 Fab
In the case of B1, in the experiment with human C5 [1], the binding result is “no binding (tested: 200 nM)”.

B2: MOR9674 Fab format (Fab, V domains shown)
VH: EVQLVQSGAEVKKPGASVKVSCKASGYTFTSYSMHWVRQAPGQGLEWMGLINPYNGNTHYAQKFQGRVTMTRDTSISTAYMELSSLRSEDTAVYYCARMLRFDVWGQGTLVTVSS
VL: ESALTQPASVSGSPGQSITISCTGTSSDGGGYNYVSWYQQHPGKAPKLMIYGVSNRPSGVSNRFSGSKSGNTASLTISGLQAEDEADYYCQTYTRYSDSPVFGGGTKLTVLG
B2 displayed a Kd in [2] of 0.119 nM. In experiment [3], this molecule came in with a Kd of 0.09 nM. Further, in experiment [4], the “C3b Dep (nM), cyno serum, IC50” value is 70 nM; the “HA (nM), 10% cyno serum, IC50” value turned out to be 78 nM; the “MAC Dep (nM), cyno serum, IC50” value is 17 nM. In the experiment with human C5 [1], the binding result is recorded as “no binding (tested: 200 nM)”.

B3: MOR09124 Fab (Fab, V domains shown)
VH: QVQLVESGGGLVQPGGSLRLSCAASGFTFSSYWMTWVRQAPGKGLEWVSSIKIKPDGYAASVKGRFTISRDNSKNTLYLQMNSLRAEDTAVYYCARLFYQYFARMDYWGQGTLVTVSS
VL: DIQMTQSPSSLSASVGDRVTITCRASQDISNYLNWYQQKPGKAPKLLIYAASNLQSGVPSRFSGSGSGTDFTLTISSLQPEDFATYYCQQYDSYSPTFGQGTKVEIKR
notes: HCDR2-matured derivative of parental MOR08305
As for B3, the binding result in the experiment with human C3d and with human C5 [13] was “no binding” in each case. In addition, the half-inhibitory concentration (IC50) in experiment [5] amounted to 1 nM; in [8] it was 3 nM. Further, the dissociation constant Kd worked out at 0.007 nM in [6], 0.033 nM in experiment [7], 0.001 nM in experiment [11] and 0.021 nM in experiment [12]. Besides, in [9], the “C3b Dep (nM), human serum, IC50” value came to 16 nM. Besides, in experiment [9], the “HA (nM), 10% human serum, IC50” value worked out at 44 nM. For the same molecule, the “MAC Dep (nM), human serum, IC50” value in experiment [9] is 1 nM. Also, the “C3b Dep (nM), cyno serum, IC50” value in experiment [10] was determined as 73 nM. Moreover, the “HA (nM), 10% cyno serum, IC50” value in experiment [10] came out at 101 nM. In addition, the “MAC Dep (nM), cyno serum, IC50” value in [10] stood at 5 nM.

B4: MOR09423 Fab (Fab, V domains shown)
VH: QVQLVQSGAEVKKPGASVKVSCKASGYTFTGYYINWVRQAPGQGLEWMGIISPNQGTTGYAQKFQGRVTMTRDTSISTAYMELSSLRSEDTAVYYCARGNYDHLDYWGQGTLVTVSS
VL: DIQMTQSPSSLSASVGDRVTITCRASQGISNYLNWYQQKPGKAPKLLIYDASTLQSGVPSRFSGSGSGTDFTLTISSLQPEDFATYYCQQDWHTLPVTFGQGTKVEIKR
notes: also called Fab 9423
In the case of B4, the binding result with human C3d and with human C5 [13] was “no binding” each time. Further, the IC50 was 0.08 nM in [5] and 0.2 nM in experiment [8]. The Kd in experiment [6] is 0.075 nM; in [7], 0.486 nM; in [11], 0.1 nM; in [12], 0.34 nM. Moreover, in experiment [9], the “C3b Dep (nM), human serum, IC50” value was determined as 14 nM. The “HA (nM), 10% human serum, IC50” value in experiment [9] came to 48 nM. Besides, in experiment [9], the “MAC Dep (nM), human serum, IC50” value was found to be 1 nM. Also, in [10], the “C3b Dep (nM), cyno serum, IC50” value was 66 nM. Besides, the “HA (nM), 10% cyno serum, IC50” value in [10] worked out at 83 nM. Further, the “MAC Dep (nM), cyno serum, IC50” value in experiment [10] was found to be 4 nM.
